The target of this assay is mG-CSF (recombinant murine G-CSF, R&D Systems Cat #414-CS) (mouse) (UniProt P09920). The assay can be described thus: cell-based or functional assay.
Sequence of UniProt P09920 (P09920 31-208 limits assumed): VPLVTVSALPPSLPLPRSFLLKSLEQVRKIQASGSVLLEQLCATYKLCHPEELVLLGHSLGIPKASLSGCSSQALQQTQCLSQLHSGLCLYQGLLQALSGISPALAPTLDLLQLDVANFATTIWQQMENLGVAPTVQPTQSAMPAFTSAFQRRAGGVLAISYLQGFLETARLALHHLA

In the case of Anti-G-CSF (MAB414) (antibody), the inhibition of mG-CSF proliferation of hG-CSFR BaF3 cells (MTS reduction, 48 hours), IC50 turned out to be 0.01 nM. The value for “soluble hG-CSFR-Fc protein (from UniProt Q99062 25-627) (Fc fusion)” was 0.022 nM.

The record behind these values is patent US20110110934A1.
